{"source": "paper doi:10.1101/2022.01.19.476979", "about": "(bioRxiv, 2022)", "key": {"[1]": {"target": "T1, FHH-tagged Siah1, recombinant purified (UniProt Q8IUQ4 1-282, RED-tris-NTA 2nd generation dye (Monolith His-Tag labeling kit))", "T1 sequence (looked up)": "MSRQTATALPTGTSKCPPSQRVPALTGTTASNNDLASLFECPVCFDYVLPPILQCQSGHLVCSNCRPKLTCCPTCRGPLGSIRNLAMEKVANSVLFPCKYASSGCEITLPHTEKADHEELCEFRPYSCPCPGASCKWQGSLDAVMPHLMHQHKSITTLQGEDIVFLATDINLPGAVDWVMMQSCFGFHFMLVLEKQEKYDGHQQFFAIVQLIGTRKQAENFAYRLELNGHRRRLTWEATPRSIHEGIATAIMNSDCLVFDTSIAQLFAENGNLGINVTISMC", "assay": "MST"}, "[2]": {"target": "FHH-tagged MAB21L4, recombinant purified (human, UniProt Q08AI8 1-447, RED-tris-NTA 2nd generation dye (Monolith His-Tag labeling kit))", "sequence (Q08AI8 whole entry)": "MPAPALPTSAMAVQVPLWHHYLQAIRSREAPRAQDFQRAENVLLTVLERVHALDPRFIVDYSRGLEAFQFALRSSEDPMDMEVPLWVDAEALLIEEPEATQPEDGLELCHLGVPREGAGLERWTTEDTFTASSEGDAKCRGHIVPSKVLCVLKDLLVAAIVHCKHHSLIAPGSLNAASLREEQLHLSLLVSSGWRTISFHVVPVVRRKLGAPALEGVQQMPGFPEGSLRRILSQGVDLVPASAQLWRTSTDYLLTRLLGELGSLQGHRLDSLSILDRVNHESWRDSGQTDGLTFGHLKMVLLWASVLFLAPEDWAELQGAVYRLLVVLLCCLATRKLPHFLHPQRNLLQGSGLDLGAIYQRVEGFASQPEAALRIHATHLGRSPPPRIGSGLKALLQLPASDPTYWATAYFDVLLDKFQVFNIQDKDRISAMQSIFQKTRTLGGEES", "assay": "MST"}}, "data": [{"binder": "n-terminus FLAG-tagged CacyBP, recombinant purified (natural protein, UniProt Q9HB71 1-228, looked up) MASEELQKDLEEVKVLLEKATRKRVRDALTAEKSKIETEIKNKMQQKSQKKAELLDNEKPAAVVAPITTGYTVKISNYGWDQSDKFVKIYITLTGVHQVPTENVQVHFTERSFDLLVKNLNGKSYSMIVNNLLKPISVEGSSKKVKTDTVLILCRKKVENTRWDYLTQVEKECKEKEKPSYDTETDPSEGLMNVLKKIYEDGDDDMKRTINKAWVESREKQAKGDTEF", "values": [{"measurement": "Kd", "setting": "[1]", "value": 9.8, "unit": "µM"}, {"measurement": "Kd", "setting": "[2]", "value": 2.1, "unit": "µM"}]}]}
